# Starred links: 1 amine or outer side, 2 acyl side, 3 side chain; linkers in the order of their positions; H or OH if unused. Positions of bridges follow the written chain, without caps; N, C: chain ends. Groups on a side chain read outwards from the residue. Primed or numbered codes have the meaning given here. No end group written: not given here. *: point of attachment. dpeg″ = —[CO(CH2)O(CH2)2O(CH2)NH]— spacer unit, O=C(COCCOCN[*:1])[*:2]; C20 diacid = O=C(O)CCCCCCCCCCCCCCCCCCC(=O)*; C18 diacid = O=C(O)CCCCCCCCCCCCCCCCC(=O)*; γGlu = O=C(O)[C@H](CCC(=O)[*:2])N[*:1]; Palmitoyl = CCCCCCCCCCCCCCCC(=O)*
# T1: human calcitonin receptor (human, UniProt P30988 25-474)
# T1 sequence (looked up): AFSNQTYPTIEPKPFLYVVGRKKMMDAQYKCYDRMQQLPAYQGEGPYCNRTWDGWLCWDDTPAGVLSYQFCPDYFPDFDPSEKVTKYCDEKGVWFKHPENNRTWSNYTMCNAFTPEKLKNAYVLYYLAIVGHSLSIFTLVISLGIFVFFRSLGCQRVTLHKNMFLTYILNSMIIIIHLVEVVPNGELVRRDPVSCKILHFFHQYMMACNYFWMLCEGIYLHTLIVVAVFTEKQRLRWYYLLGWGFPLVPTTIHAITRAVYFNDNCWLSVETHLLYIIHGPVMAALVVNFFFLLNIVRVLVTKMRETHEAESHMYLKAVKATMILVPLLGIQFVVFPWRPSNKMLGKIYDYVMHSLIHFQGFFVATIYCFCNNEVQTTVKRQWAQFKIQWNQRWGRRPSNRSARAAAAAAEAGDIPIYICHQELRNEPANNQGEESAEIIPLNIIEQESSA
# T2: human amylin 3 receptor (human, UniProt P30988 25-474; O60896 24-148)
# T2 sequence (looked up) 1: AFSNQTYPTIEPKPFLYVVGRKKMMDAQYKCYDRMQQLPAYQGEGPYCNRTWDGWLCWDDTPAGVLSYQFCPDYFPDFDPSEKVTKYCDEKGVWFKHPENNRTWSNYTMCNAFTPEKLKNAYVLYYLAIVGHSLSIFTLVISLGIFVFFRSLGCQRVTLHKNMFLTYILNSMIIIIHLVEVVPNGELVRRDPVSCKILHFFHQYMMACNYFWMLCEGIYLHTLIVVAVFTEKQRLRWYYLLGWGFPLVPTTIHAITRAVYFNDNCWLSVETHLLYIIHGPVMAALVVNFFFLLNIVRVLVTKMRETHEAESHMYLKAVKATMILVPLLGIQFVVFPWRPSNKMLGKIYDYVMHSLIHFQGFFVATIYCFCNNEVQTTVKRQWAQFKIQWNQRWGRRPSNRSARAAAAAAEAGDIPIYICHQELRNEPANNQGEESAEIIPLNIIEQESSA
# T2 sequence (looked up) 2: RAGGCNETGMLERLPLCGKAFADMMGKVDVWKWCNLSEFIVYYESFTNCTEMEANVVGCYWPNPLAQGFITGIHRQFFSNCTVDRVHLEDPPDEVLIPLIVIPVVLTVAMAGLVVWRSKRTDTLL
# Assays:
# [1] = molecular target: T1, human calcitonin receptor; assay: cell-based or functional assay
# [2] = molecular target: T2, human amylin 3 receptor; assay: cell-based or functional assay
"pEC50 (cAMP accumulation), 0% HSA [1] [pEC50]","pEC50 (cAMP accumulation), 0.1% HSA [1] [pEC50]","pEC50 (cAMP accumulation), 4% HSA [1] [pEC50]","pEC50 (cAMP accumulation), 0% HSA [2] [pEC50]","pEC50 (cAMP accumulation), 0.1% HSA [2] [pEC50]","pEC50 (cAMP accumulation), 4% HSA [2] [pEC50]",Binder
10.3,8.9,7.4,11.4,9.7,8.4,K(C18 diacid)CNTSTCATQRLANELHKSSNNFGPILPPTKVGSETY-NH2 (disulfide 2-7; N-terminus assumed; SMILES CC[C@H](C)[C@H](NC(=O)[C@@H]1CCCN1C(=O)CNC(=O)[C@H](Cc1ccccc1)NC(=O)[C@H](CC(N)=O)NC(=O)[C@H](CC(N)=O)NC(=O)[C@H](CO)NC(=O)[C@H](CO)NC(=O)[C@H](CCCCN)NC(=O)[C@H](Cc1c[nH]cn1)NC(=O)[C@H](CC(C)C)NC(=O)[C@H](CCC(=O)O)NC(=O)[C@H](CC(N)=O)NC(=O)[C@H](C)NC(=O)[C@H](CC(C)C)NC(=O)[C@H](CCCNC(=N)N)NC(=O)[C@H](CCC(N)=O)NC(=O)[C@@H](NC(=O)[C@H](C)NC(=O)[C@@H]1CSSC[C@H](NC(=O)[C@@H](N)CCCCNC(=O)CCCCCCCCCCCCCCCCC(=O)O)C(=O)N[C@@H](CC(N)=O)C(=O)N[C@@H]([C@@H](C)O)C(=O)N[C@@H](CO)C(=O)N[C@@H]([C@@H](C)O)C(=O)N1)[C@@H](C)O)C(=O)N[C@@H](CC(C)C)C(=O)N1CCC[C@H]1C(=O)N1CCC[C@H]1C(=O)N[C@H](C(=O)N[C@@H](CCCCN)C(=O)N[C@H](C(=O)NCC(=O)N[C@@H](CO)C(=O)N[C@@H](CCC(=O)O)C(=O)N[C@H](C(=O)N[C@@H](Cc1ccc(O)cc1)C(N)=O)[C@@H](C)O)C(C)C)[C@@H](C)O) [Compound A120]
11.2,9.5,7.9,11.9,10.2,8.5,K([γGlu-C20 diacid])CNTSTCATQRLANELHKSSNNFGPILPPTKVGSETY-NH2 (disulfide 2-7; N-terminus assumed; SMILES CC[C@H](C)[C@H](NC(=O)[C@@H]1CCCN1C(=O)CNC(=O)[C@H](Cc1ccccc1)NC(=O)[C@H](CC(N)=O)NC(=O)[C@H](CC(N)=O)NC(=O)[C@H](CO)NC(=O)[C@H](CO)NC(=O)[C@H](CCCCN)NC(=O)[C@H](Cc1c[nH]cn1)NC(=O)[C@H](CC(C)C)NC(=O)[C@H](CCC(=O)O)NC(=O)[C@H](CC(N)=O)NC(=O)[C@H](C)NC(=O)[C@H](CC(C)C)NC(=O)[C@H](CCCNC(=N)N)NC(=O)[C@H](CCC(N)=O)NC(=O)[C@@H](NC(=O)[C@H](C)NC(=O)[C@@H]1CSSC[C@H](NC(=O)[C@@H](N)CCCCNC(=O)CC[C@H](NC(=O)CCCCCCCCCCCCCCCCCCC(=O)O)C(=O)O)C(=O)N[C@@H](CC(N)=O)C(=O)N[C@@H]([C@@H](C)O)C(=O)N[C@@H](CO)C(=O)N[C@@H]([C@@H](C)O)C(=O)N1)[C@@H](C)O)C(=O)N[C@@H](CC(C)C)C(=O)N1CCC[C@H]1C(=O)N1CCC[C@H]1C(=O)N[C@H](C(=O)N[C@@H](CCCCN)C(=O)N[C@H](C(=O)NCC(=O)N[C@@H](CO)C(=O)N[C@@H](CCC(=O)O)C(=O)N[C@H](C(=O)N[C@@H](Cc1ccc(O)cc1)C(N)=O)[C@@H](C)O)C(C)C)[C@@H](C)O) [Compound A119]
11.3,9.7,8.1,12.3,10.6,9,K([dpeg″-dpeg″-γGlu-C18 diacid])CNTSTCATQRLANELHKSSNNFGPILPPTKVGSETY-NH2 (disulfide 2-7) [Compound A113]
11.7,10.5,9,12.2,11.1,9.6,K([γGlu-C18 diacid])CNTSTCATSRLANFLQKSSNNFGPILPPTKVGSETY-NH2 (disulfide 2-7; N-terminus assumed; SMILES CC[C@H](C)[C@H](NC(=O)[C@@H]1CCCN1C(=O)CNC(=O)[C@H](Cc1ccccc1)NC(=O)[C@H](CC(N)=O)NC(=O)[C@H](CC(N)=O)NC(=O)[C@H](CO)NC(=O)[C@H](CO)NC(=O)[C@H](CCCCN)NC(=O)[C@H](CCC(N)=O)NC(=O)[C@H](CC(C)C)NC(=O)[C@H](Cc1ccccc1)NC(=O)[C@H](CC(N)=O)NC(=O)[C@H](C)NC(=O)[C@H](CC(C)C)NC(=O)[C@H](CCCNC(=N)N)NC(=O)[C@H](CO)NC(=O)[C@@H](NC(=O)[C@H](C)NC(=O)[C@@H]1CSSC[C@H](NC(=O)[C@@H](N)CCCCNC(=O)CC[C@H](NC(=O)CCCCCCCCCCCCCCCCC(=O)O)C(=O)O)C(=O)N[C@@H](CC(N)=O)C(=O)N[C@@H]([C@@H](C)O)C(=O)N[C@@H](CO)C(=O)N[C@@H]([C@@H](C)O)C(=O)N1)[C@@H](C)O)C(=O)N[C@@H](CC(C)C)C(=O)N1CCC[C@H]1C(=O)N1CCC[C@H]1C(=O)N[C@H](C(=O)N[C@@H](CCCCN)C(=O)N[C@H](C(=O)NCC(=O)N[C@@H](CO)C(=O)N[C@@H](CCC(=O)O)C(=O)N[C@H](C(=O)N[C@@H](Cc1ccc(O)cc1)C(N)=O)[C@@H](C)O)C(C)C)[C@@H](C)O) [Compound A109]
11.5,9.9,8.5,12.3,10.7,9.4,K(C20 diacid)CNTSTCATQRLANELHKSSNNFGPILPPTKVGSETY-NH2 (disulfide 2-7; N-terminus assumed; SMILES CC[C@H](C)[C@H](NC(=O)[C@@H]1CCCN1C(=O)CNC(=O)[C@H](Cc1ccccc1)NC(=O)[C@H](CC(N)=O)NC(=O)[C@H](CC(N)=O)NC(=O)[C@H](CO)NC(=O)[C@H](CO)NC(=O)[C@H](CCCCN)NC(=O)[C@H](Cc1c[nH]cn1)NC(=O)[C@H](CC(C)C)NC(=O)[C@H](CCC(=O)O)NC(=O)[C@H](CC(N)=O)NC(=O)[C@H](C)NC(=O)[C@H](CC(C)C)NC(=O)[C@H](CCCNC(=N)N)NC(=O)[C@H](CCC(N)=O)NC(=O)[C@@H](NC(=O)[C@H](C)NC(=O)[C@@H]1CSSC[C@H](NC(=O)[C@@H](N)CCCCNC(=O)CCCCCCCCCCCCCCCCCCC(=O)O)C(=O)N[C@@H](CC(N)=O)C(=O)N[C@@H]([C@@H](C)O)C(=O)N[C@@H](CO)C(=O)N[C@@H]([C@@H](C)O)C(=O)N1)[C@@H](C)O)C(=O)N[C@@H](CC(C)C)C(=O)N1CCC[C@H]1C(=O)N1CCC[C@H]1C(=O)N[C@H](C(=O)N[C@@H](CCCCN)C(=O)N[C@H](C(=O)NCC(=O)N[C@@H](CO)C(=O)N[C@@H](CCC(=O)O)C(=O)N[C@H](C(=O)N[C@@H](Cc1ccc(O)cc1)C(N)=O)[C@@H](C)O)C(C)C)[C@@H](C)O) [Compound A115]
11.5,10.5,9,12.5,11.6,10.3,SCNTSTCATQRLK([γGlu-Palmitoyl])NELHKSSNNFGPILPPTKVGSETY-NH2 (disulfide 2-7; N-terminus assumed; SMILES CCCCCCCCCCCCCCCC(=O)N[C@@H](CCC(=O)NCCCC[C@H](NC(=O)[C@H](CC(C)C)NC(=O)[C@H](CCCNC(=N)N)NC(=O)[C@H](CCC(N)=O)NC(=O)[C@@H](NC(=O)[C@H](C)NC(=O)[C@@H]1CSSC[C@H](NC(=O)[C@@H](N)CO)C(=O)N[C@@H](CC(N)=O)C(=O)N[C@@H]([C@@H](C)O)C(=O)N[C@@H](CO)C(=O)N[C@@H]([C@@H](C)O)C(=O)N1)[C@@H](C)O)C(=O)N[C@@H](CC(N)=O)C(=O)N[C@@H](CCC(=O)O)C(=O)N[C@@H](CC(C)C)C(=O)N[C@@H](Cc1c[nH]cn1)C(=O)N[C@@H](CCCCN)C(=O)N[C@@H](CO)C(=O)N[C@@H](CO)C(=O)N[C@@H](CC(N)=O)C(=O)N[C@@H](CC(N)=O)C(=O)N[C@@H](Cc1ccccc1)C(=O)NCC(=O)N1CCC[C@H]1C(=O)N[C@H](C(=O)N[C@@H](CC(C)C)C(=O)N1CCC[C@H]1C(=O)N1CCC[C@H]1C(=O)N[C@H](C(=O)N[C@@H](CCCCN)C(=O)N[C@H](C(=O)NCC(=O)N[C@@H](CO)C(=O)N[C@@H](CCC(=O)O)C(=O)N[C@H](C(=O)N[C@@H](Cc1ccc(O)cc1)C(N)=O)[C@@H](C)O)C(C)C)[C@@H](C)O)[C@@H](C)CC)C(=O)O) [Compound A107]
